From the supplement of paper PMC9732359
± gives the uncertainty stated by the source.

Assay: protein stability index of a GFP-peptide fusion (yeast GPS) (PSI 1-4); higher = more stable; sorted into four equal gates, so the index is relative within each strain
Summary of the method: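 Mid-log yeast cultures in leucine-free medium, carrying a pooled plasmid library, were sorted into four equal gates by their GFP/Cherry fluorescence ratio. Each plasmid expressed Cherry along with GFP fused upstream of a tiled 17-residue yeast protein peptide. Plasmids recovered from each gate were PCR-amplified and Illumina-sequenced, with reads assigned to strains by barcodes. The protein stability index was obtained by summing each gate's read frequency weighted by its gate number.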

Sequence	protein stability index (doa10∆)	protein stability index (pdr5∆)	protein stability index (san1∆)	protein stability index (ubr1∆)
NVDVCVMEIGKDAEYLR [PUP1]	2.84 ± 0.068	2.73 ± 0.063	2.7 ± 0.066	2.39 ± 0.051
TGSLMGGNSTQNTSNMN [YGR119C/NUP57]	3.19 ± 0.076	3.24 ± 0.064	3.07 ± 0.052	3.18 ± 0.048
LVSNPHEIYGSMPLEQL [SRB4]	3.01 ± 0.12	2.26 ± 0.065	3.1 ± 0.19	1.89 ± 0.1
KEEFIMMVNISVLISIP [PCI8]	1.43 ± 0.037	1.33 ± 0.033	1.57 ± 0.074	1.36 ± 0.031
YTYSSTLSHLRRTNTPI [RPB2]	2.06 ± 0.043	2.13 ± 0.04	2.23 ± 0.063	2.17 ± 0.033
ATTQDQVASIIESFVEL [NUT2]	2.11 ± 0.071	2.65 ± 0.076	2.17 ± 0.15	2.49 ± 0.054
LLKELSKNAQFICTTFR [SMC3]	2.45 ± 0.063	2.01 ± 0.052	1.84 ± 0.1	1.94 ± 0.048
KELFGEDEDEDLFGDSN [SSN2]	3.32 ± 0.2	3.54 ± 0.2	3.21 ± 0.27	3.67 ± 0.2
TCSCCKKTVAGGAYTVS [RPL43A]	1.65 ± 0.064	2.1 ± 0.11	1.76 ± 0.086	2.15 ± 0.066
WPKTRGVAMNPVDHPHG [RPL2A]	2.37 ± 0.078	2.25 ± 0.057	2.74 ± 0.058	2.55 ± 0.066
LTGSPNNPLVQKKNFLF [ARP7]	2.9 ± 0.092	2.89 ± 0.1	2.27 ± 0.16	3.18 ± 0.066
SATSTTEQTKSKNPLSL [YLR335W/NUP2]	2.95 ± 0.04	3.01 ± 0.047	2.58 ± 0.055	2.96 ± 0.044
NLGEYYAQIGDKDNAEK [RPN7]	1.92 ± 0.056	2.05 ± 0.075	2.49 ± 0.087	2.47 ± 0.053
PKRKRRLPVSEDTNTKP [YOR098C/NUP1]	3.16 ± 0.11	2.82 ± 0.13		2.97 ± 0.073
VQLSPSNPQHIIQPFLD [RGR1]	2.73 ± 0.051	2.85 ± 0.062	2.51 ± 0.063	2.82 ± 0.032
EGLCIVAGSKCWAVRAD [RRP45]	2.38 ± 0.073	2.43 ± 0.071	2.53 ± 0.079	2.57 ± 0.07
EGEAKQKRNAHGYFLQD [ITC1]	3.18 ± 0.065	3.4 ± 0.072	3.35 ± 0.035	3.32 ± 0.043
NSDDILSLHENYPQDEI [POP1]	2.94 ± 0.06	3.12 ± 0.073	2.82 ± 0.084	2.92 ± 0.05
LNISGEFFRNKLKYHDF [RPL16A]	1.32 ± 0.13			1.12 ± 0.1
LFMKSLIENCKKRNMPL [SWI1]	2.68 ± 0.053	2.72 ± 0.068	2.83 ± 0.045	2.82 ± 0.042
PDAQNELPKFILSDSPL [DIS3]	2.87 ± 0.048	3.03 ± 0.063	2.87 ± 0.044	2.92 ± 0.079
NSNTTNQNSSTGAGAFG [YJL041W/NSP1]	3.04 ± 0.053	3.07 ± 0.074	3.03 ± 0.051	2.96 ± 0.05
SFGNREEFINKLVKSMN [RPL7A]	2.52 ± 0.11	2.6 ± 0.11	2.29 ± 0.18	2.76 ± 0.071
NVDGNIKIVYALTTIKG [RPS18A]		1.49 ± 0.18		1.23 ± 0.11
LPKAWISLAVEGEPVNS [COR1]	1.38 ± 0.12	2.1 ± 0.14	2.84 ± 0.14	1.79 ± 0.1
DDEEYDYNDVEVNSKKK [BRR2]	3.3 ± 0.051	3.18 ± 0.051	3.32 ± 0.053	3.33 ± 0.036
YDRNSNNNHKDKKLLRR [SWI1]	3.09 ± 0.053	3.17 ± 0.05	3.06 ± 0.06	3.23 ± 0.041

Sequence	protein stability index (doa10∆)	protein stability index (pdr5∆)	protein stability index (san1∆)	protein stability index (ubr1∆)
PEMSNLYRLSTPLRDEV [PRP8]	2.76 ± 0.067	2.76 ± 0.047	2.56 ± 0.044	2.75 ± 0.06
RLQQGRRLPMTMFTAEQ [SNF2]	3.09 ± 0.053	3.19 ± 0.048	3.13 ± 0.043	3.27 ± 0.045
CVKAIEALFQSRPDILS [YCG1]	3.19 ± 0.083	2.47 ± 0.085	3.03 ± 0.082	3.05 ± 0.087
MPFWKFFMKNFPFVLKV [SRB8]	2.8 ± 0.23	1.99 ± 0.11	2.03 ± 0.12	2.04 ± 0.1
ELVTISWVQPRIISGDQ [RPN9]	2.44 ± 0.12	1.96 ± 0.087	2.27 ± 0.12	2.98 ± 0.1
DNETPSKKTSPKATSSA [YOR098C/NUP1]	2.1 ± 0.05	2.52 ± 0.049	2.41 ± 0.064	3.026 ± 0.029
VIVTDPRSDAQAIKEAS [RPS0A]	2.88 ± 0.089	2.96 ± 0.08	2.92 ± 0.068	2.91 ± 0.061
LLGKESFKKIIKFLLTF [YCS4]	1.45 ± 0.063	1.57 ± 0.11	1.18 ± 0.16	1.65 ± 0.06
SRENNSEYMVFGKLAFP [YJL039C/NUP192]	2.49 ± 0.064	2.54 ± 0.072	2.97 ± 0.069	2.79 ± 0.082
VKSFKPHLLKQGLAMVE [RRP42]	2.01 ± 0.13	2.35 ± 0.1		2.29 ± 0.2
ENMWPFSYQEVEFKLPK [CDC53]	1.83 ± 0.048	2.19 ± 0.058	1.34 ± 0.076	2.47 ± 0.035
DQLSTISMILRNISFSD [SWI1]	1.85 ± 0.052	2.44 ± 0.072	2.04 ± 0.069	2.31 ± 0.051
NFIVHSPMLKRIKITAN [GRR1]	1.48 ± 0.072	1.2 ± 0.075	1.29 ± 0.13	1.19 ± 0.061
KAKRSNLYTPKAEMPPE [PRP8]	2.98 ± 0.084	3.05 ± 0.081	2.84 ± 0.063	2.89 ± 0.077
KDILVKTGITKKDEDEE [PRE9]	3.37 ± 0.09	3.27 ± 0.087	2.58 ± 0.23	3.17 ± 0.14
LRACAANVDQISFLEPI [YMR129W/POM152]	3.06 ± 0.072	2.98 ± 0.07	2.92 ± 0.05	2.97 ± 0.046
SSFNKRSKFLSTVAKFL [IRR1]	2.76 ± 0.052	2.28 ± 0.054	2.08 ± 0.067	2.4 ± 0.035
KKIKGKSIQDIVGLATL [SRP21]	3.12 ± 0.039	3.22 ± 0.035	3.177 ± 0.026	3.116 ± 0.031
EEPIKKLCYVLGVEDIT [RET1]			3.08 ± 0.15	
LKNKNFKCQEKDKGVYV [SIR2]	3.53 ± 0.22	3.03 ± 0.093	3.38 ± 0.077	3.27 ± 0.17
IKLGSTAIGIATKEGVV [PUP2]	1.54 ± 0.11	1.63 ± 0.18	1.34 ± 0.26	1.32 ± 0.11
MATNRADTLDPALLRPG [RPT3]		3.31 ± 0.18		2.79 ± 0.28
VFLFDIEKVDRENMICK [RRI2]	3.17 ± 0.17	3.24 ± 0.14	2.88 ± 0.19	3.29 ± 0.12
ETTLGEMAEKIDFTLLN [PRP8]	3.12 ± 0.093	3.17 ± 0.1	3.19 ± 0.098	2.71 ± 0.082
DQLAVSPEQIDASPDSL [YCS4]	1.62 ± 0.071	1.89 ± 0.081	1.65 ± 0.1	1.86 ± 0.06
FSKKGNEPLSEIEIEGV [YAR002W/NUP60]	2.72 ± 0.11	3.17 ± 0.14	3.04 ± 0.08	3.15 ± 0.1
